Measurements reported in patent US20060269977A1, “Recombinant antibody recognizing dioxin and gene encoding the antibody” (priority 2003, published 2006).
Changes are numbered by the printed parent chain.

B1: anti-2,3,4,7,8-PeCDF scFv: scFv: H-chain variable region of Dx3860, linker, L-chain variable region of Dx3860 (SEQ ID No. 56), expressed in E. coli Origami B (DE3) (protein)
scFv: EVKLVESGGGLVKPGGSLKLSCAASGFTFSSYAMSWVRQTPEKRLEWVASFSNGGITYYPDSVKGRFTISRDNARNILYLQMTSLRSEDTAIYYCARGYGPAYWGQGTLVTVSSGGGGSGGGGSGGGGSQAVVTQESALTTSPGETVTLTCRSSTGAVTTLNYANWVQEKPDHLFTGLIGNTNNRAPGVPARFSGSLIGDKAALTITGAQTEDEAIYFCALWYSNHLVFGGGTKLTVLG
modifications: scFv fragment Dx3860HL
B2: H-chain variable region polypeptide: H-chain variable region of Dx3860, polypeptide having the amino acid sequence of SEQ ID No. 5, from vector pET22Δ-Dx3860H (antibody, V domains shown)
VH: EVKLVESGGGLVKPGGSLKLSCAASGFTFSSYAMSWVRQTPEKRLEWVASFSNGGITYYPDSVKGRFTISRDNARNILYLQMTSLRSEDTAIYYCARGYGPAYWGQGTLVTVSA
modifications: Polypeptide of H-chain variable region of monoclonal antibody Dx 3860
B3: Dx3860: monoclonal antibody recognizing 2,3,4,7,8-PeCDF, produced by hybridoma Dx3860r1; H/L variable regions SEQ ID Nos. 5 and 6 (antibody, V domains shown)
VH: B2 VH
VL: QAVVTQESALTTSPGETVTLTCRSSTGAVTTLNYANWVQEKPDHLFTGLIGNTNNRAPGVPARFSGSLIGDKAALTITGAQTEDEAIYFCALWYSNHLVFGGGTKLTVLG
modifications: Polypeptide of H-chain variable region of monoclonal antibody Dx 3860; Polypeptide of L-chain variable region of monoclonal antibody Dx 3860
B4: Dx3150: monoclonal antibody recognizing 2,3,4,7,8-PeCDF, produced by hybridoma Dx3150r1; H/L variable regions SEQ ID Nos. 7 and 8 (antibody, V domains shown)
VH: DVQLQESGPGLVKPSQSLSLTCSVTGYSITSGFYWNWIRQFPGNKLEWMGYISYDGYNNYNPFLKNRVSITRDTSENQFFLKLHSVTTEDTATYYCVSYGSRRGVTYWGQGTTLTVSS
VL: B3 VL with L32S, S95N, N96T, K105R
modifications: Polypeptide of H-chain variable region of monoclonal antibody Dx 3150; Polypeptide of L-chain variable region of monoclonal antibody Dx 3150

What was measured:
Assay type in all cases: binding
[1] = Indirect competitive immunoassay using anti-2,3,4,7,8-PeCDF scFv; settings: 2,3,4,7,8-PeCDF solution in 20% DMSO; immobilized 2,3,4,7,8-PeCDF derivative-BSA conjugate; FIG. 9
Protocol: Determination of 2,3,4,7,8-PeCDF by an Indirect Competitive Immunoassay Using Anti-2,3,4,7,8-PeCDF scFv
One μg/ml of 2,3,4,7,8-PeCDF derivative-BSA conjugate (50 μl) was added to a microtiter plate, and allowed to react at room temperature for one hour. The wells of the microtiter plate were washed with PBS(−) containing 0.05% Tween 20. A solution of Block Ace (Yukijirushi Co.) was then added to the wells, and the wells were blocked by allowing them to stand at room temperature for two hours. After the microtiter plate was washed, a solution (25 μl) of 2,3,4,7,8-PeCDF prepared in various concentrations (a solution in 20% DMSO) and a solution (25 μl) of anti-2,3,4,7,8-PeCDF scFv were added to the wells, and allowed to react at room temperature for 0.5 to 1 hour. After the microtiter plate was again washed, a solution of anti-tetra-His antibody (Qiagen Co.) 2000-fold diluted was added to the wells, and allowed to react at room temperature for one hour. Subsequently, a solution (50 μl) of peroxidase-labeled anti-mouse IgG (recognizing γ-chain) antibody (KPL Co.) 3000-fold diluted was added to the wells, and allowed to react at room temperature for one hour. […] The reaction was terminated by adding 1 M H3PO4 (50 μl), and OD450 (control: OD600) was measured using a plate reader (Labsystems Co.).

[2] = EIA reactivity of H-chain variable region polypeptide fractions to immobilized 2,3,4,7,8-PeCDF-BSA conjugate; settings: fractions eluted from nickel-chelate column; EIA on immobilized 2,3,4,7,8-PeCDF-BSA conjugate; FIG. 10
Protocol: Escherichia coli Origami B (DE3) (Novagen Co.) was transformed using expression vector pET22Δ-Dx3860H which was prepared by removing the sequence between restriction enzyme sites Bam HI and Not I containing the L-chain variable region of expression vector pET22Δ-Dx3860HL. Using the transformant, the expression of the H-chain variable region polypeptide (polypeptide having the amino acid sequence as shown in SEQ ID No. 5) was carried out in the same manner as in the case of the scFv.
The H-chain variable region polypeptide obtained as an inclusion body was reconstituted on a nickel-chelate column as described above, and the product was then isolated and purified using imidazole. Protein concentrations of the fractions eluted from the chelate column were determined by measuring absorbance (280 nm), and the reactivity to an immobilized 2,3,4,7,8-PeCDF-BSA conjugate was also investigated by an EIA method. As a result, it was recognized that the fractions of the H-chain variable region polypeptide have an anti-2,3,4,7,8-PeCDF activity as shown in FIG. 10.

[3] = Hybridoma supernatant EIA: antibody titer to immobilized 2,3,4,7,8-PeCDF derivative-BSA conjugate and its inhibition by 2,3,4,7,8-PeCDF; settings: titer inhibited by 2,3,4,7,8-PeCDF dissolved in 20% DMSO
Protocol: After 7 to 10 days from the onset of the cultivation, a portion of the supernatant of the culture in the wells in which proliferation of hybridomas was observed was taken and added to a microtiter plate to which the 2,3,4,7,8-PeCDF derivative-BSA conjugate was immobilized. After allowing to react at room temperature for one hour, the plate was washed with PBS(−) containing 0.05% Tween 20. A peroxidase-labeled anti-mouse IgG antibody (recognizing γ-chain) (KPL Co.) was then added to the plate and allowed to react at room temperature for one hour, and the plate was then washed in the same manner. A substrate solution (TMB substrate, KPL Co.) was added to the plate, the peroxidase activity on the plate was measured, and the antibody titer in the supernatant of the culture was determined.

Row | Molecule | recognition of 2,3,4,7,8-PeCDF by monoclonal antibody [3] | other results
1 | B1 |  | determination of 2,3,4,7,8-PeCDF by indirect competitive immunoassay [1]: can be determined in a highly sensitive manner
2 | B2 |  | binding activity to 2,3,4,7,8-PeCDF (anti-2,3,4,7,8-PeCDF activity) [2]: has a binding activity to 2,3,4,7,8-PeCDF
3 | B3 | recognizing 2,3,4,7,8-PeCDF | 
4 | B4 | recognizing 2,3,4,7,8-PeCDF | 
